Results on five molecules are retold here after patent publication US20070298499, “Methods and compositions for regulating gene expression in plant cells” (published 2007).

Data set [1] concerns the target T1, RF2b (expressed in BY-2 protoplasts) (UniProt Q6S4P4).
T1 sequence: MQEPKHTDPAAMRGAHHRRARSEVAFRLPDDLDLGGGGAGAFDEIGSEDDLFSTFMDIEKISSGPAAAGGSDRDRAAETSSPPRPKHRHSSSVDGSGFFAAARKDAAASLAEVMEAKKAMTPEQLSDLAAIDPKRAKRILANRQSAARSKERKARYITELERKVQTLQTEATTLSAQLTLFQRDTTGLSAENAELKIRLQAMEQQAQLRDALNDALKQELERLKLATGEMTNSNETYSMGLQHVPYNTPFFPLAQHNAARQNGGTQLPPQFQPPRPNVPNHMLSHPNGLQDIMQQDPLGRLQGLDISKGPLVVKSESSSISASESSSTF
Briefly: cell_activity. The conditions noted are these: GUS reporter in BY-2 protoplasts.

Data set [2] deals with T2, RF2b (UniProt Q6S4P4 SEQ:1-329).
T2 chain: T1 sequence
The experiment in a line: SPR; value only in figure; lower affinity than RF2a. The conditions noted are these: chain copies: 2 (inferred, bZIP dimer), label: biotin (SPR). The method, then:
(§1) To compare the binding affinities of RF2a and RF2b with the Box II element and its mutants, real time Surface Plasmon Resonance (“SPR”) measurements were conducted using a BIAcore 2000 instrument. The binding affinities of RF2a and RF2b to these DNA targets were measured on chips on which biotin labeled-Box II, -Box IIm1 and -Box IIm2 elements were immobilized.
(§2) The association and de-association constants were determined using BIAevaluation 3.1 software—using 1:1 binding with a mass transfer model. In general, RF2a has relatively higher binding affinities to the Box II, Box IIm1 and Box IIm2 elements when compared to RF2b. Furthermore, the DNA binding behavior of RF2a and RF2b are quite different from each other. RF2a appears to bind rapidly to the DNA target and slowly dissociates from the target, while RF2b binds slowly to the DNA target and releases from the target relatively quickly. The differences in the affinity of RF2a to the Box II element and its mutants, however, are not as dramatic as the differences of RF2b, while the relative order of affinities to the different target elements is the same for both proteins (FIG. 8).

The target of data set [3] is T2, RF2b. The experiment in a line: SPR; value only in figure; lower affinity than RF2a; slow on, relatively fast off. The settings on record: chain copies: 2 (inferred, bZIP dimer); label: biotin (SPR). The protocol:
as §1, §2

The target in data set [4] is T3, RF2a-ΔPΔA (proline-rich and acidic domains deleted) (UniProt Q69IL4 SEQ:1-261).
T3 chain: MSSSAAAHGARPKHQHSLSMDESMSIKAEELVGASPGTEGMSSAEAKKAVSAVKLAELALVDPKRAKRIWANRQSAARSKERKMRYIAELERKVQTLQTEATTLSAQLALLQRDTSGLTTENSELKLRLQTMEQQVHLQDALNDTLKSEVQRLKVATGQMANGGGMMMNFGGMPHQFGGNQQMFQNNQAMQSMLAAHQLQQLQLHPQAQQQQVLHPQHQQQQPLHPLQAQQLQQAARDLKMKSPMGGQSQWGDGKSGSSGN
The experiment in a line: EMSA; 100 ng protein, 5% acrylamide gel. The settings on record: tags: N-terminal His6 (pET28a); chain copies: 2 (inferred, bZIP dimer); label: biotin (SPR); 32P (EMSA). The protocol: (§3) The purified mutant proteins were then analyzed by SDS-PAGE to confirm that each protein was its expected size (FIG. 16(B)). To confirm that each of the mutant proteins bind to the DNA target, i.e., the Box II element and/or its operational derivatives, gel mobility shift assays were carried out with the purified recombinant proteins (FIG. 16(C)). The electrophoretic mobility shift assays were carried out essentially as described in Yin and Beachy (1995). 100 ng of proteins purified from the transformed E. coli were incubated with ³²P-labeled Box IIm1 DNA probe followed by electrophoresis in a 5% acrylamide gel (Yin et al., 1997) (FIG. 16(C)).

For data set [5], the target named is T4, RF2a-ΔPΔQ (proline- and glutamine-rich domains deleted) (UniProt Q69IL4 SEQ:1-236).
T4 chain: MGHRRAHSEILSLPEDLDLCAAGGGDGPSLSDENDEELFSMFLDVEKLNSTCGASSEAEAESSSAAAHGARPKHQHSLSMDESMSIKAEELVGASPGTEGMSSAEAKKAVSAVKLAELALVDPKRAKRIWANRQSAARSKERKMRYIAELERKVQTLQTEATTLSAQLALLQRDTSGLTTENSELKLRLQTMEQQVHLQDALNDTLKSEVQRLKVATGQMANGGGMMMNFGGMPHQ
Briefly: EMSA; 100 ng protein, 5% acrylamide gel. The settings on record: tags: N-terminal His6 (pET28a); chain copies: 2 (inferred, bZIP dimer); label: biotin (SPR); 32P (EMSA). The protocol: as §3

For data set [6], the target named is T5, RF2a-ΔQ (glutamine-rich domain deleted) (UniProt Q69IL4 SEQ:1-283).
T5 chain: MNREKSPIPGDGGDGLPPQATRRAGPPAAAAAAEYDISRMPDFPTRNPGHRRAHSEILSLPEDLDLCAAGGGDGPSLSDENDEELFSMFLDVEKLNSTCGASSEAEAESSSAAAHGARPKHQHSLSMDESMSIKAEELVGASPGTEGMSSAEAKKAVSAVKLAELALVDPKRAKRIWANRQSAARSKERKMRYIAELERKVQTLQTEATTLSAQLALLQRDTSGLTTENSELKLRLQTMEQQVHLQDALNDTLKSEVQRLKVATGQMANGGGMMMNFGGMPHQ
Briefly: EMSA; 100 ng protein, 5% acrylamide gel. The conditions noted are these: tags: N-terminal His6 (pET28a); chain copies: 2 (inferred, bZIP dimer); label: biotin (SPR); 32P (EMSA). The protocol: as §3

Data set [7] addresses T6, RF2a-ΔP (proline-rich domain deleted) (UniProt Q69IL4 SEQ:1-320).
T6 chain: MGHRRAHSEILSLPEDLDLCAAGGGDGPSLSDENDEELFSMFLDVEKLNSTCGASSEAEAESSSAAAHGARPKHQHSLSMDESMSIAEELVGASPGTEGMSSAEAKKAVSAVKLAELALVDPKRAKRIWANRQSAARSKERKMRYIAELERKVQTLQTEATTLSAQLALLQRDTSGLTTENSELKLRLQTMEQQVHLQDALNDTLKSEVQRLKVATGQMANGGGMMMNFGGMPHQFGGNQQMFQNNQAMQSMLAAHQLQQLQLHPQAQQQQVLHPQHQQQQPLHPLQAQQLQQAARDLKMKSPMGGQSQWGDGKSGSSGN
The experiment in a line: EMSA; 100 ng protein, 5% acrylamide gel. The settings on record: tags: N-terminal His6 (pET28a); chain copies: 2 (inferred, bZIP dimer); label: biotin (SPR); 32P (EMSA). The protocol: as §3

Turning to “ACGAATCAATAAAGAAGGACCAGAAGATATAAAGCTGGAACATCTTCACATGCTACCACATGGCTAGCATCTTTACTTTAGCATCTCTATTATTGTAAGAGTGTATAATGACCAGTGTGGCGCTGGACTCCAGTATATAAGGAGCACCAGAGTAGTGTAATAGATCATCGATCAAGCAAGCGAGAGCTCAAACTTCTAAGAGAGCAAGA (double strand) [E fragment with Box IIm1]”, in data set [1], the activity (fold activation) came out at 7.

“ACGAATCAATAAAGAAGGACCAGAAGATATAAAGCTGGAACATCTTCACATGCTACCACATGGCTAGCATCTTTACTTTAGCATCTCTATTATTGTAAGAGTGTATAATGAGGAGTGTGCCCCTTCACTCCAGTATATAAGGAGCACCAGAGTAGTGTAATAGATCATCGATCAAGCAAGCGAGAGCTCAAACTTCTAAGAGAGCAAGA (double strand) [E fragment with Box IIm2]” displayed an activity (fold activation) in data set [1] of 5.8.

B1: Box IIm2 (dsDNA)
DNA 1: GGAGTGTGCCCCTTC
DNA 2: GAAGGGGCACACTCC
Take B1: the binding result with RF2b [2] was “binds”.

B2: Box II (dsDNA)
DNA 1: CCAGTGTGCCCCTGG
DNA 2: CCAGGGGCACACTGG
Turning to B2, the binding result with RF2b [3] is recorded as “binds”.

B3: Box IIm1 (dsDNA)
DNA 1: CCAGTGTGGCGCTGG
DNA 2: CCAGCGCCACACTGG
Consider B3, for which the binding result (in data set [4]; in data set [5]; in data set [6]; in data set [7]; with RF2b [2] (32P (EMSA))) was “binds” throughout.
